Data from patent US20210292428A1 (US Dept. of Health and Human Services, published 2021).

Key:
[1] = target: T1, recombinant human glypican-2 (GPC2) (human, UniProt Q8N158 24-554, limits assumed); test: Octet kinetic analysis (BLI), FIG. 1C
T1 construct: also called human GPC2; huGPC2
T1 sequence (looked up): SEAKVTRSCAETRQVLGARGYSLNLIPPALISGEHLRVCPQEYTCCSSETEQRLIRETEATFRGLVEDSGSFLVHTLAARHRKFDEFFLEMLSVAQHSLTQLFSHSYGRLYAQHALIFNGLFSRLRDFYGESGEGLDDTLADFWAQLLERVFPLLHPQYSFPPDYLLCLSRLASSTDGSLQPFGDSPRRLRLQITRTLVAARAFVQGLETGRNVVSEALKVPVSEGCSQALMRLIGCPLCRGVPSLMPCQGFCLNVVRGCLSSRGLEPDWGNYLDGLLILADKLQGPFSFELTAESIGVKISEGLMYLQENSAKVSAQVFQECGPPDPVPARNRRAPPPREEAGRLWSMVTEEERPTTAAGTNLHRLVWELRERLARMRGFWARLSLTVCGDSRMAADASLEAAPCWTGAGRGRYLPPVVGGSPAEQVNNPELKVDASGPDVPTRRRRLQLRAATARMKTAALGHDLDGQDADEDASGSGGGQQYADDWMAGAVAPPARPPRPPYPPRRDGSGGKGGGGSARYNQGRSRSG

[2] = target: T2, recombinant human glypican-3 (human, UniProt P51654 25-559); test: ELISA on recombinant glypican proteins, absorbance OD450nm
T2 construct: also called human GPC3; huGPC3
T2 sequence (P51654 25-559 limits assumed): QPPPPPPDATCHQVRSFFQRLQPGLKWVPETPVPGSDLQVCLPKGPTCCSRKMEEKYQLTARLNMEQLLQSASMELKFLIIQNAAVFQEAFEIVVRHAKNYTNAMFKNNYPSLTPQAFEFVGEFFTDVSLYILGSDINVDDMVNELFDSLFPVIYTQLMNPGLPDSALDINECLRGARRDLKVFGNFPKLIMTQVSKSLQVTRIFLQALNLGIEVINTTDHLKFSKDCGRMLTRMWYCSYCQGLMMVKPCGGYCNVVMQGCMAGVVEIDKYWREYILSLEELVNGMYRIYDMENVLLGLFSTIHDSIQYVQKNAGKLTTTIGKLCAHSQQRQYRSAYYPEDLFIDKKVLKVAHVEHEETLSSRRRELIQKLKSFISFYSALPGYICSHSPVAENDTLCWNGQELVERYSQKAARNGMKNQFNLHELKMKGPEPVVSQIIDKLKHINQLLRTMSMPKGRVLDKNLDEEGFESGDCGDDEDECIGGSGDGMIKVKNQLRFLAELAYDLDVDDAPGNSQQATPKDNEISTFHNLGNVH

[3] = target: T3, recombinant human glypican-6 (human, UniProt Q9Y625 24-529); test: ELISA on recombinant human glypicans and mouse GPC2, absorbance OD450nm
T3 construct: also called human GPC6; huGPC6
T3 sequence (looked up): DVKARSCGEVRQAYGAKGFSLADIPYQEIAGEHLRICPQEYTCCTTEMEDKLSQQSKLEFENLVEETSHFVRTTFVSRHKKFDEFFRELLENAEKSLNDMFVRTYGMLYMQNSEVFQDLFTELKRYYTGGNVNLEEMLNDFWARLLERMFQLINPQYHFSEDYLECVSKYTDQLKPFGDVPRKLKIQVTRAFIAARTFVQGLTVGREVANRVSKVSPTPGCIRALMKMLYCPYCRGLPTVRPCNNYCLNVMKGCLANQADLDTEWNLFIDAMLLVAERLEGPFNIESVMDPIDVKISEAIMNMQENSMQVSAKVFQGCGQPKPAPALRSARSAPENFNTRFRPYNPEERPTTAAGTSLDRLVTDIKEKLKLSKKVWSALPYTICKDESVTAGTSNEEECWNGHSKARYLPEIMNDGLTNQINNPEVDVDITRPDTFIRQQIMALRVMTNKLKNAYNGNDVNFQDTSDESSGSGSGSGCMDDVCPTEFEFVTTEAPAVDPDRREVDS

recombinant mouse GPC2 = target: T4, recombinant mouse GPC2 (mouse, UniProt Q8BKV1 22-556, limits assumed); test: as above
T4 construct: also called msGPC2
T4 sequence (looked up): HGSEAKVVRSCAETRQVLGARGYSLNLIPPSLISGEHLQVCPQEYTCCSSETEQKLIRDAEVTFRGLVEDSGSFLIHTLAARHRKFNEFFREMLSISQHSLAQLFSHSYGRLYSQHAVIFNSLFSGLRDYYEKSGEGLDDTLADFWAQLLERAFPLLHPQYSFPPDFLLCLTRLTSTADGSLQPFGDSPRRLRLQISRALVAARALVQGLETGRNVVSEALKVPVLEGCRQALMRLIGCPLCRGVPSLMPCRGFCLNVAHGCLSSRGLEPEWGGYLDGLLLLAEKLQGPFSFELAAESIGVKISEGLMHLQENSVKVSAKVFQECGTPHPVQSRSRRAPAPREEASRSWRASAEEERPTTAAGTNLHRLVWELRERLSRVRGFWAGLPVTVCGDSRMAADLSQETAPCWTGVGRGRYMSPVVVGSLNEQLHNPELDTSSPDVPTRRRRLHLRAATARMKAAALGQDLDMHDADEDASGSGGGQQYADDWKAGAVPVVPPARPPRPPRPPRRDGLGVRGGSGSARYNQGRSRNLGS

[4] = target: T5, recombinant human glypican-1 (human, UniProt P35052 24-530); test: as above
T5 construct: also called huGPC1
T5 sequence (looked up): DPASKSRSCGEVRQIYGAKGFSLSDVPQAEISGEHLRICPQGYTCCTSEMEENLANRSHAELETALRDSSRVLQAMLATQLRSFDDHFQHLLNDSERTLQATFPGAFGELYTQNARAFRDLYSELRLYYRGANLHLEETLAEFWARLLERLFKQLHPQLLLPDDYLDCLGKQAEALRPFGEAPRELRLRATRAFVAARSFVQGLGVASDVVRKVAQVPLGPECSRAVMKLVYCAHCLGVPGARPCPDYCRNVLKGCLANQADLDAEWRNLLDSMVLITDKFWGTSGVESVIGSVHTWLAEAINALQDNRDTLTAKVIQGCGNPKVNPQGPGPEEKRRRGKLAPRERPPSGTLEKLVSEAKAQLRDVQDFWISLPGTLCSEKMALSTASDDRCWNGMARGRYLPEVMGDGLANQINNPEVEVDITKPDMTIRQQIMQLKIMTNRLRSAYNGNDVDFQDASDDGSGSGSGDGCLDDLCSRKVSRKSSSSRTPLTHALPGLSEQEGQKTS

[5] = target: T6, recombinant human glypican-4 (human, UniProt O75487 19-529, limits assumed); test: as above
T6 construct: also called huGPC4
T6 sequence (looked up): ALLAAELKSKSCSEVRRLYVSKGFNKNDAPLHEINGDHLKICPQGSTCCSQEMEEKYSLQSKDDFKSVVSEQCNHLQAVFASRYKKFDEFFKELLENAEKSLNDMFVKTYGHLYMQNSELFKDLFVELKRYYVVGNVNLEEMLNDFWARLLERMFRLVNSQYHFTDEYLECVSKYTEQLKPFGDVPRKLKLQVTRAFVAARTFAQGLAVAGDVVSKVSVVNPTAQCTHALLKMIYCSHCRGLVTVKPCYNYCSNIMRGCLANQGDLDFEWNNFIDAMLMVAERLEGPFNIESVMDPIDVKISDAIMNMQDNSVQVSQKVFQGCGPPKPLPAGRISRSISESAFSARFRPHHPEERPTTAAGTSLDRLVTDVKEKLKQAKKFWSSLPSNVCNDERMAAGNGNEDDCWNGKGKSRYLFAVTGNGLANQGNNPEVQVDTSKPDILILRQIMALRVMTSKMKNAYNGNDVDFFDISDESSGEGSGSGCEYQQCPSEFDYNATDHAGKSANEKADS

[6] = target: T7, recombinant human glypican-5 (human, UniProt P78333 25-554, limits assumed); test: as above
T7 construct: also called huGPC5
T7 sequence (looked up): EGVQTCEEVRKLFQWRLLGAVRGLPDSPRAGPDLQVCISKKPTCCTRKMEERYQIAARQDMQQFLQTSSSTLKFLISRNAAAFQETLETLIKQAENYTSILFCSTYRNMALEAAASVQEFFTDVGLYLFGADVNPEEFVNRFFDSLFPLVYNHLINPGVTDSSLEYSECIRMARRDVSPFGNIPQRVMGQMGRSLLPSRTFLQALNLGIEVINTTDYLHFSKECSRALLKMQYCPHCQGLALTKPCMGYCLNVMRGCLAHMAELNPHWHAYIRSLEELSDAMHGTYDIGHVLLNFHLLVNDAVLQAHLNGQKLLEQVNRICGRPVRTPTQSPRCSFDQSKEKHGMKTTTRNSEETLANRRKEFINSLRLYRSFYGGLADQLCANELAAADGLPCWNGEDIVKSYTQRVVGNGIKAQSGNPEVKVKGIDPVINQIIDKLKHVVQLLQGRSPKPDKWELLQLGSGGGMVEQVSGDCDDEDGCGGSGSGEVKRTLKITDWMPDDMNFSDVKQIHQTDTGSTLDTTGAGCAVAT

Human GPC2-His = target: T8, Human GPC2-His (human, UniProt Q8N158 24-554)
T8 sequence: T1 sequence (looked up)

[7] = target: T3, recombinant human glypican-6; test: ELISA on recombinant glypican proteins, absorbance OD450nm
[8] = target: T1, recombinant human glypican-2 (GPC2); test: as above
[9] = target: T7, recombinant human glypican-5; test: as above
[10] = target: T9, human GPC2 expressed on the cell surface (human, UniProt Q8N158 24-554); test: flow cytometry on GPC2-positive neuroblastoma cell lines LAN1 and IMR5, CT5 at 10 ng/ml, counts normalized to mode
T9 construct: whole, on cells; also called cell-surface GPC2; GPC2 on LAN1, IMR5, G10, F8, SKNBE2 and NBEB cells
T9 sequence (looked up): T1 sequence (looked up)

B1: CT3 antibody (antibody, IgG1, V domains shown)
VH: EVQLQQSGPELVKPGASVKMSCKASRFTFTDYNIHWVKQSPGKTLEWIGYINPNNGDIFYKQKFNGKATLTINKSSNTAYMELRSLTSEDSAVYYCVRSSNIRYTFDRFFDVWGTGTTVTVSS
VL: ENVLTQSPAIMSASLGEKVTMSCRASSSVNYIYWYQQKSDASPKLWIYYTSNLAPGVPARFSGSGSGNSYSLTISSMEGEDAATYYCQQFSSSPSTFGTGTKLELK
notes: also called anti-GPC2 antibody CT3
In the case of B1, the Kd [1] is reported as 0.5 nM, the binding result [2] is reported as “no binding” and the binding result [3] is reported as “no binding”. B1: no binding (recombinant mouse GPC2); no binding [4]; no binding [5]. B1: no binding [6].

B2: CT3-PE38 immunotoxin (other)
chain: EVQLQQSGPELVKPGASVKMSCKASRFTFTDYNIHWVKQSPGKTLEWIGYINPNNGDIFYKQKFNGKATLTINKSSNTAYMELRSLTSEDSAVYYCVRSSNIRYTFDRFFDVWGTGTTVTVSSGGGGSGGGGSGGGGSENVLTQSPAIMSASLGEKVTMSCRASSSVNYIYWYQQKSDASPKLWIYYTSNLAPGVPARFSGSGSGNSYSLTISSMEGEDAATYYCQQFSSSPSTFGTGTKLELKSAAKASGGPEGGSLAALTAHQACHLPLETFTRHRQPRGWEQLEQCGYPVQRLVALYLAARLSWNQVDQVIRNALASPGSGGDLGEAIREQPEQARLALTLAAAESERFVRQGTGNDEAGAANGPADSGDALLERNYPTGAEFLGDGGDVSFSTRGTQNWTVERLLQAHRQLEERGYVFVGYHGTFLEAAQSIVFGGVRARSQDLDAIWRGFYIAGDPALAYGYAQDQEPDARGRIRNGALLRVYVPRSSLPGFYRTSLTLAAPEAAGEVERLIGHPLPLRLDAITGPEEEGGRLETILGWPLAERTVVIPSAIPTDPRNVGGDLDPSSIPDKEQAISALPDYASQPGKPPREDLK
B2 showed a Kd (Human GPC2-His) of 0.22 nM.

B3: CT5 antibody (antibody, IgG1, V domains shown)
VH: EVKLVESGGGLVQSGRSLRLSCATSGFTFSDFYMEWVRQAPGKGLEWIVASRDKANDYTTAYSASVKGRFIVSRDTSQSILYLQMNALRAEDTAIYYCVRDFYDYDEAYWGQGTLVTVS
VL: DIQMTQSPSSLSASLGGTVTITCKASEDINNYIAWYQHKPGKGPRLLIQYTSTLQPGIPSRFSGSGSGRDYSLSISNLEPEDIATYYCLQYDILWTFGGGTKLEIK
B3: no binding [7]; binds [8]; no binding [2]. B3: no binding [9]; binds [10].

B4: CT3-T20 immunotoxin (other)
chain: EVQLQQSGPELVKPGASVKMSCKASRFTFTDYNIHWVKQSPGKTLEWIGYINPNNGDIFYKQKFNGKATLTINKSSNTAYMELRSLTSEDSAVYYCVRSSNIRYTFDRFFDVWGTGTTVTVSSGGGGSGGGGSGGGGSENVLTQSPAIMSASLGEKVTMSCRASSSVNYIYWYQQKSDASPKLWIYYTSNLAPGVPARFSGSGSGNSYSLTISSMEGEDAATYYCQQFSSSPSTFGTGTKLELKKLKASGGRHRQPRGWEQLGGGGGSPTGAEFLGDGGDVSFSTRGTQNWTVERLLQAHAQLEERGYVFVGYHGTALEAAQSIVFGGVRARSQDLDAIWRGFYIAGDPAHAYGYAQDQEPDARGRIANGALLRVYVPASSLPGFYRTSLTLAAPEAAGEVERLIGHPLPLRLDAITGPEEEGGREETILGWPLAERTVVIPSAIPTDPRNVGGDLDPSSIPDKEQAISALPDYASQPGKPPREDLK
B4 was tested, and the Kd (Human GPC2-His) was 0.16 nM.
